Assay [1] addresses albumin (Sigma A9731) (human) (UniProt P02768). Description: SPR (CM5 chip), albumin immobilised, FcRn in solution, pH 5.8, 25 C.
The target of assay [2] is human IgG3 (human) (UniProt P01860). Description: SPR (CM5 chip), IgG immobilised, FcRn in solution, pH 5.8, 25 C.
The target in assay [3] is human IgG4 (human). The assay is described as above.
In assay [4] the target is albumin (Sigma A9731) (human) (UniProt P02768). Description: SPR (C1 chip), FcRn-biotin on surface, albumin injected, pH 5.8, 25 C.
The target of a further assay is human IgG1 (human). Briefly: SPR (C1 chip), FcRn-biotin on surface, IgG injected, pH 5.8; estimated from limited surface saturation.
A further assay deals with human IgG2 (human). The description is as above.
human IgG2 (human), sequence (Fc, as listed by the source limits assumed): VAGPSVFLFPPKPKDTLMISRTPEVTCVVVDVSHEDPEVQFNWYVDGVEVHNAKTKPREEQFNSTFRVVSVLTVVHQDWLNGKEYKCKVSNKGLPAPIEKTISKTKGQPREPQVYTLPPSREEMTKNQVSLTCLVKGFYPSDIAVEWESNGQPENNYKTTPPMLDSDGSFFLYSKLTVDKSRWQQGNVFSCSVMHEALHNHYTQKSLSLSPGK
Assay [5] has as its target human IgG3 (human) (UniProt P01860). The assay is described as above.
Assay [6] deals with human IgG4 (human). The description is as above.

human IgG3 (human), sequence (P01860 other isoform, or with tags, fused parts or gaps): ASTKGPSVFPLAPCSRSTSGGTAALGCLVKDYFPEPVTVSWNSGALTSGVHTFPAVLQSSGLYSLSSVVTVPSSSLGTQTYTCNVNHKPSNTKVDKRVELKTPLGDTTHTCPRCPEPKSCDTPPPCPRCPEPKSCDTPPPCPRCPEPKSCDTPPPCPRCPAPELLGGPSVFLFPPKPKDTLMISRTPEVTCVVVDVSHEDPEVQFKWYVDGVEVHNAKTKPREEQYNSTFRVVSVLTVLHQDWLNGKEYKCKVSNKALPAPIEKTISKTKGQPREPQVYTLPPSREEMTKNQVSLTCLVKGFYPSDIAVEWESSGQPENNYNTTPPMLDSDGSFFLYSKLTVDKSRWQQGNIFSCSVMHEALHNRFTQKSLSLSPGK

Regarding “FcRn E133K (extracellular domain with beta2 microglobulin) (from UniProt P61769 21-119) (receptor)”, the Kd in assay [1] came to 960 nM.

“FcRn M118I (extracellular domain with beta2 microglobulin) (from UniProt P61769 21-119) (receptor)”: the Kd in the assay with human IgG3 (human) [2] was 210 nM; with human IgG4 (human) [3], 239 nM; in assay [1], 480 nM; in assay [4], 1900 nM; in the assay with human IgG1 (human) it was 5200 nM; with human IgG2 (human) it was 6600 nM. Besides, the Kd was 4200 nM with human IgG3 (human) [5] and 12600 nM with human IgG4 (human) [6].

Turning to “FcRn W131R (extracellular domain with beta2 microglobulin) (from UniProt P61769 21-119) (receptor)”, the dissociation constant Kd worked out at 440 nM in assay [1] and 1700 nM in assay [4].

The record behind these values is US20250297287A1.
